This note sets out measurements from the supplement of paper PMC11316812.

± gives the standard deviation of the averaged measurements.

Series [1] deals with hTERT-HMEC. The series can be described thus: percentage of EdU-negative (G0-arrested) nuclei per well, 72 h; higher = more G0 arrest. The settings on record: reference: sequence is the full UniProt precursor, the tested protein was the secreted form or ectodomain.
In series [2] the test system is MCF7. The series is described as above. The settings on record: reference: sequence is the full UniProt precursor, the tested protein was the secreted form or ectodomain.
Setting [3] is: protein concentration 0.00669 µM.
[4] abbreviates: protein concentration 0.0669 µM.
Setting [5] is: protein concentration 0.0225 µM.
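Also: secreted proteins added to cultured cells, EdU pulse at the end, nuclei found by Hoechst imaging, EdU status from nuclear versus surrounding ring intensity ratio, PBS as neutral control.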

As to “MAQHGAMGAFRALCGLALLCALSLGQRPTGGPGCGPGRLLLGTGTDARCCRVHTTRCCRDYPGEECCSEWDCMCVQPEFHCGDPCCTTCRHHPCPPGQGVQSQGKFSFGFQCIDCASGTFSGGHEGHCKPWTDCTQFGFLTVFPGNKTHNAVCVPGSPPAEPLGWLTVVLLAVAACVLLLTSAQLGLHIWQLRSQCMWPRETQLLLEVPPSTEDARSCQFPEEERGERSAEEKGRLGDLWV [Q9Y5U5]”, the “percentage of EdU-negative” value in series [1] (setting [3]) is 5.37 ± 0.9%; in series [1] (setting [4]) it was 6.01 ± 1.5%; in series [2] (setting [3]), 24.9 ± 1.6%; in series [2] (setting [4]) it was 23.9 ± 0.75%.

As to “MAQHHLWILLLCLQTWPEAAGKDSEIFTVNGILGESVTFPVNIQEPRQVKIIAWTSKTSVAYVTPGDSETAPVVTVTHRNYYERIHALGPNYNLVISDLRMEDAGDYKADINTQADPYTTTKRYNLQIYRRLGKPKITQSLMASVNSTCNVTLTCSVEKEEKNVTYNWSPLGEEGNVLQIFQTPEDQELTYTCTAQNPVSNNSDSISARQLCADIAMGFRTHHTGLLSVLAMFFLLVLILSSVFLFRLFKRRQGRIFPEGSCLNTFTKNPYAASKKTIYTYIMASRNTQPAESRIYDEILQSKVLPSKEEPVNTVYSEVQFADKMGKASTQDSKPPGTSSYEIVI [Q9UIB8]”, the “percentage of EdU-negative” value is 4.54 ± 0.35% in series [1] (setting [5]), 5.92 ± 0.51% in series [1] (protein concentration 0.225 µM), 27.3 ± 3% in series [2] (setting [5]) and 26.8 ± 1.5% in series [2] (protein concentration 0.225 µM).

“MAQLCGLRRSRAFLALLGSLLLSGVLAADRERSIHDFCLVSKVVGRCRASMPRWWYNVTDGSCQLFVYGGCDGNSNNYLTKEECLKKCATVTENATGDLATSRNAADSSVPSAPRRQDSEDHSSDMFNYEEYCTANAVTGPCRASFPRWYFDVERNSCNNFIYGGCRGNKNSYRSEEACMLRCFRQQENPPLPLGSKVVVLAGLFVMVLILFLGASMVYLIRVARRNQERALRTVWSSGDDKEQLVKNTYVL”: the “percentage of EdU-negative” value in series [1] (setting [5]) worked out at 4.91 ± 0.26%; in series [1] (protein concentration 0.225 µM), 5.37 ± 0.98%; in series [2] (setting [5]), 24.2 ± 2%; in series [2] (protein concentration 0.225 µM) it was 25.4 ± 0.69%.

Turning to “MAQLWLSCFLLPALVVSVAANVAPKFLANMTSVILPEDLPVGAQAFWLVAEDQDNDPLTYGMSGPNAYFFAVTPKTGEVKLASALDYETLYTFKVTISVSDPYIQVQREMLVIVEDRNDNAPVFQNTAFSTSINETLPVGSVVFSVLAVDKDMGSAGMVVYSIEKVIPSTGDSEHLFRILANGSIVLNGSLSYNNKSAFYQLELKACDLGGMYHNTFTIQCSLPVFLSISVVDQPDLDPQFVREFYSASVAEDAAKGTSVLTVEAVDGDKGINDPVIYSISYSTRPGWFDIGADGVIRVNGSLDREQLLEADEEVQLQVTATETHLNIYGQEAKVSIWVTVRVMDVNDHKPEFYNCSLPACTFTPEEAQVNFTGYVDEHASPRIPIDDLTMVVYDPDKGSNGTFLLSLGGPDAEAFSVSPERAVGSASVQVLVRVSALVDYERQTAMAVQVVATDSVSQNFSVAMVTIHLRDINDHRPTFPQSLYVLTVPEHSATGSVVTDSIHATDPDTGAWGQITYSLLPGNGADLFQVDPVSGTVTVRNGELLDRESQAVYYLTLQATDGGNLSSSTTLQIHLLDINDNAPVVSGSYNIFVQEEEGNVSVTIQAHDNDEPGTNNSRLLFNLLPGPYSHNFSLDPDTGLLRNLGPLDREAIDPALEGRIVLTVLVSDCGEPVLGTKVNVTITVEDINDNLPIFNQSSYNFTVKEEDPGVLVGVVKAWDADQTEANNRISFSLSGSGANYFMIRGLVLGAGWAEGYLRLPPDVSLDYETQPVFNLTVSAENPDPQGGETIVDVCVNVKDVNDNPPTLDVASLRGIRVAENGSQHGQVAVVVASDVDTSAQLEIQLVNILCTKAGVDVGSLCWGWFSVAANGSVYINQSKAIDYEACDLVTLVVRACDLATDPGFQAYSNNGSLLITIEDVNDNAPYFLPENKTFVIIPELVLPNREVASVRARDDDSGNNGVILFSILRVDFISKDGATIPFQGVFSIFTSSEADVFAGSIQPVTSLDSTLQGTYQVTVQARDRPSLGPFLEATTTLNLFTVDQSYRSRLQFSTPKEEVGANRQAINAALTQATRTTVYIVDIQDIDSAARARPHSYLDAYFVFPNGSALTLDELSVMIRNDQDSLTQLLQLGLVVLGSQESQESDLSKQLISVIIGLGVALLLVLVIMTMAFVCVRKSYNRKLQAMKAAKEARKTAAGVMPSAPAIPGTNMYNTERANPMLNLPNKDLGLEYLSPSNDLDSVSVNSLDDNSVDVDKNSQEIKEHRPPHTPPEPDPEPLSVVLLGRQAGASGQLEGPSYTNAGLDTTDL [Q9BYE9]”, the “percentage of EdU-negative” value stood at 4.86 ± 0.083% in series [1] (setting [5]), 7.42 ± 0.98% in series [1] (protein concentration 0.225 µM), 26.56 ± 0.19% in series [2] (setting [5]) and 26.4 ± 2.1% in series [2] (protein concentration 0.225 µM).

Take “MAQRCVCVLALVAMLLLVFPTVSRSMGPRSGEHQRASRIPSQFSKEERVAMKEALKGAIQIPTVTFSSEKSNTTALAEFGKYIHKVFPTVVSTSFIQHEVVEEYSHLFTIQGSDPSLQPYLLMAHFDVVPAPEEGWEVPPFSGLERDGIIYGRGTLDDKNSVMALLQALELLLIRKYIPRRSFFISLGHDEESSGTGAQRISALLQSRGVQLAFIVDEGGFILDDFIPNFKKPIALIAVSEKGSMNLMLQVNMTSGHSSAPPKETSIGILAAAVSRLEQTPMPIIFGSGTVVTVLQQLANEFPFPVNIILSNPWLFEPLISRFMERNPLTNAIIRTTTALTIFKAGVKFNVIPPVAQATVNFRIHPGQTVQEVLELTKNIVADNRVQFHVLSAFDPLPVSPSDDKALGYQLLRQTVQSVFPEVNITAPVTSIGNTDSRFFTNLTTGIYRFYPIYIQPEDFKRIHGVNEKISVQAYETQVKFIFELIQNADTDQEPVSHLHKL [Q6GTS8]”: the “percentage of EdU-negative” value stood at 4.69 ± 0.48% in series [1] (setting [5]), 5.33 ± 0.14% in series [1] (protein concentration 0.225 µM), 28 ± 2% in series [2] (setting [5]) and 24.4 ± 2.8% in series [2] (protein concentration 0.225 µM).

As to “MAQRMTTQLLLLLVWVAVVGEAQTRIAWARTELLNVCMNAKHHKEKPGPEDKLHEQCRPWRKNACCSTNTSQEAHKDVSYLYRFNWNHCGEMAPACKRHFIQDTCLYECSPNLGPWIQQVDQSWRKERVLNVPLCKEDCEQWWEDCRTSYTCKSNWHKGWNWTSGFNKCAVGAACQPFHFYFPTPTVLCNEIWTHSYKVSNYSRGSGRCIQMWFDPAQGNPNEEVARFYAAAMSGAGPWAAWPFLLSLALMLLWLLS”, the “percentage of EdU-negative” value in series [1] (setting [5]) turned out to be 15.7 ± 0.18%; in series [1] (protein concentration 0.225 µM) it was 10.3 ± 8.7%; in series [2] (setting [5]) it was 25.4 ± 1.9%; in series [2] (protein concentration 0.225 µM), 24.4 ± 0.58%.
